Test results taken from PMC4271737.

Key:
[1] = target: human angiotensin II type 1 receptor with a C-terminal GFP-H10 tag (AT1R-GFP-H10) (human) (UniProt P30556); test: radioligand binding; non-solubilised membranes (briefly sonicated cells); 0.5 nM [125I]Sar1 with 100 nM unlabelled Sar1; bound and free ligand separated by filtration through 96-well glass fibre filter plates without polyethyleneimine; background from parental or uninfected cells
[2] = target: human angiotensin II type 1 receptor with a C-terminal decahistidine tag (AT1R-H10) (human) (UniProt P30556); test: as above

specific binding in membranes (dpm, set to 100%) [1]: 12000 dpm
specific binding in membranes (dpm, set to 100%) [2]: 1400 dpm
Substance: [^125I]sar^1-Ile^8-angiotensin II (peptide)
